Assay results from IntAct's records for PubMed 30487161.

Biological target: egln1_human EGLN1 (UniProt Q9GZT9)
Sequence (Q9GZT9 whole entry, looked up): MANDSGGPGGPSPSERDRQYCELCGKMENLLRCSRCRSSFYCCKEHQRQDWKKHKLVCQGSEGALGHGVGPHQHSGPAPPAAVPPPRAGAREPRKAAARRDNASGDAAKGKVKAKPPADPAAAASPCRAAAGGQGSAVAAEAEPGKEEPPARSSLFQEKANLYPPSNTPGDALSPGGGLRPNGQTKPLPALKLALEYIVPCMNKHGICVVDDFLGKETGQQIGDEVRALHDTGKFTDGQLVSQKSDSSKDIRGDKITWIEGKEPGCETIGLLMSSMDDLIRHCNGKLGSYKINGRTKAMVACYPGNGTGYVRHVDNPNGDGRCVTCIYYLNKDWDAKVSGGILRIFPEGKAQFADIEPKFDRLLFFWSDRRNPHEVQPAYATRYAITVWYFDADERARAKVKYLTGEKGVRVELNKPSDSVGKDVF

Chain of Endothelial PAS domain-containing protein 1 (Homo sapiens), Q99814 N203H (Q99814 whole entry N203H, the tested form may be a part): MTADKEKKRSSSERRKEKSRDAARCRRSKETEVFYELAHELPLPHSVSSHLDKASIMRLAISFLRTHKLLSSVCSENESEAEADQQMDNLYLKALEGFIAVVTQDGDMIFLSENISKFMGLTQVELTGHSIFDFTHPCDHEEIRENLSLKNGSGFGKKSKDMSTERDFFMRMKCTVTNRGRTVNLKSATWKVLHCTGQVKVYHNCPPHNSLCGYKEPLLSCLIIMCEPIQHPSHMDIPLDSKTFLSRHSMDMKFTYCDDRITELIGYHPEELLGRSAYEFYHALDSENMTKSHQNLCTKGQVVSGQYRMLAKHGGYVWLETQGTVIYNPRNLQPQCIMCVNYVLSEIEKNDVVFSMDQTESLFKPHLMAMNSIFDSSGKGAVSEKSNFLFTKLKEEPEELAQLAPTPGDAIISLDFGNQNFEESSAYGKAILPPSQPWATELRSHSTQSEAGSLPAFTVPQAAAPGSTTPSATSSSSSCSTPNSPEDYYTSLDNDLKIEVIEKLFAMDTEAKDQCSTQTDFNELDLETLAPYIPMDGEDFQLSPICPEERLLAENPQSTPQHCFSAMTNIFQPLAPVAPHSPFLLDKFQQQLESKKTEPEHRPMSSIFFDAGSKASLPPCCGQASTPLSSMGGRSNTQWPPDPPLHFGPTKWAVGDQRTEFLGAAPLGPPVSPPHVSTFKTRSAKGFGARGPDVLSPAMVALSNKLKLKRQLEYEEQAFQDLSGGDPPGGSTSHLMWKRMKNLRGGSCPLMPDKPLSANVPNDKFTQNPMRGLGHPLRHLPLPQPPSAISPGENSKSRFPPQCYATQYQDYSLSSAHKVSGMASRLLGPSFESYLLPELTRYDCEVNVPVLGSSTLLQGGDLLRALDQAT
Chain of Endothelial PAS domain-containing protein 1 (Homo sapiens), Q99814 G724W (Q99814 whole entry G724W, the tested form may be a part): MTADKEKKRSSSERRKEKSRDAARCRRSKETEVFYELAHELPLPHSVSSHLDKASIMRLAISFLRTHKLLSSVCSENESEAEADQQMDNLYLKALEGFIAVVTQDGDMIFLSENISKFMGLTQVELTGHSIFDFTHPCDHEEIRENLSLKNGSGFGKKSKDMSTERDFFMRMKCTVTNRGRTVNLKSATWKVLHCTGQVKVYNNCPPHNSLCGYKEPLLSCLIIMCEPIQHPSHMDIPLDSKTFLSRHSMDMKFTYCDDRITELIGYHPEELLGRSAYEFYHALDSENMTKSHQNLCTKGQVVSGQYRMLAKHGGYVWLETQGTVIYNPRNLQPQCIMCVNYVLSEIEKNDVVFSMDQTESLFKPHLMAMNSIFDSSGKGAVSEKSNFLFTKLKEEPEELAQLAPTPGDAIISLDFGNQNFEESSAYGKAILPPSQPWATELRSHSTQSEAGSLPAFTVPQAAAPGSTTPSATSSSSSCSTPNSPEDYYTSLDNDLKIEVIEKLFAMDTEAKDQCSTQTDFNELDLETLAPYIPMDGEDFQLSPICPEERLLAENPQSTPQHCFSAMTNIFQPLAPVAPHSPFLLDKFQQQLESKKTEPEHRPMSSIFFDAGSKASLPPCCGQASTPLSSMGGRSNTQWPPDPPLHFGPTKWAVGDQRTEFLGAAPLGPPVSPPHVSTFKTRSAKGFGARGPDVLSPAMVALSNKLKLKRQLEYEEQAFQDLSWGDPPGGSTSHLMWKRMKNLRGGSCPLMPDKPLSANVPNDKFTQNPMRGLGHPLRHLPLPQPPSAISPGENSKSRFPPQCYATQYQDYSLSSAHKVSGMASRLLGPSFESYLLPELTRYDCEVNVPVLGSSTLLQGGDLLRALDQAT

Substance	effect of a mutation on the interaction
Endothelial PAS domain-containing protein 1 (Homo sapiens), Q99814 G724W	with no effect
Endothelial PAS domain-containing protein 1 (Homo sapiens), Q99814 N203H	increasing interaction strength
